ATGGACGGG (double strand) [BVO 13A / MX1E target]
Kd (MX1E (synthetic)): 3.4 nM | Kd (BVO 13A (synthetic)): < 0.02 nM

GAGGCTTGG (double strand) [VOP 29A-3 target]
Kd (VOP 29A-3 (synthetic)): < 0.02 nM

GCCGGGGAG (double strand) [USX 3A target]
Kd (USX 3A (synthetic)): 0.06 nM

GCTGGAGCA (double strand) [VOP 35A-10 target]
Kd (VOP 35A-10 (synthetic)): < 0.02 nM

GCTGGGGGC (double strand) [VOP 30A-4 target]
Kd (VOP 30A-4 (synthetic)): < 0.02 nM

GGDTGGGGG (double strand) [HP38 4A target]
Kd (HP38 4A (synthetic)): 0.75 nM

GGGGAGGAT (double strand) [VEGF 1B target]
Kd (VEGF 1B (synthetic)): 2 nM

GGGGGCGCT (double strand) [VOP 28A-2 target]
Kd (VOP 28A-2 (synthetic)): < 0.02 nM

GGGGGTGAC (double strand) [VOP 32 target]
Kd (VOP 32A-6 (synthetic)): < 0.02 nM | Kd (VOP 32B-7 (synthetic)): < 0.02 nM

TGGGCAGAC (double strand) [HUM 19A target]
Kd (HUM 19A (synthetic)): 0.02 nM

TGGGGGTGG (double strand) [MTS 5A target]
Kd (MTS 5A (synthetic)): 0.07 nM
